# B1: S. pombe Csm1 C-terminal globular domain (residues 125–261), wild type [S. pombe] / Sp Mis13 5–17 peptide (Dsn1-N/Box 1), fluorescein isothiocyanate-labelled [modified: fluorescein isothiocyanate-labelled at its N-terminus; fluorescein … (parent complex)
# chain 1: NAGADADDTIVKDLKKELENEKKANHSLKNELLKTREQIKNYSKINILIKELFGLEVADCIEDEDGYRFNCKNTGRRGTLEYQLLLDDQNFTFTPRLNVQTDEELMKHLPDYLLEEIIFTKEQGKLFSARLMKALQD
# chain 2: PEEQEGFVFVRKG
# Variants of: B1
# Assay: fluorescence polarisation; point at 250 µM protein (highest concentration shown); parent: 140; read off a plot
row,Variant,response [mP]
1,chain 1 NAGADADDTIVKDLKKELENEKKANHSLKNELLKTREQIKNYSKINILIKELFGLEVADCIEDEDGYRFNCKNTGRRGTLEYQLLLDDQNFTFTPRLNVQTDEELMKHLPDYLLEEDIFTKEQGKLFSARLMKALQD [chain 1 I117D],~73

# Source: publication PMC6823300, “The molecular basis of monopolin recruitment to the kinetochore” (Chromosoma, 2019)
